Results as given in article PMC2807175.

Substrate: OC[C@H]1O[C@@](CO)(O[C@H]2O[C@H](CO)[C@@H](O)[C@H](O)[C@H]2O)[C@@H](O)[C@@H]1O
Experiment: cells, lysate or membranes
Conditions: pH 5.6, Na Ringer, membrane potential -117 mV, H+ symport

B1: OsSUT1 (Oryza sativa Japonica Group) (protein)
chain: MARGSGAGGGGGGGGGGLELSVGVGGGGGARGGGGGEAAAAVETAAPISLGRLILSGMVAGGVQYGWALQLSLLTPYVQTLGLSHALTSFMWLCGPIAGMVVQPCVGLYSDRCTSKWGRRRPYILTGCVLICLAVVVIGFSADIGYAMGDTKEDCSVYHGSRWHAAIVYVLGFWLLDFSNNTVQGPARALMADLSGRHGPGTANSIFCSWMAMGNILGYSSGSTNNWHKWFPFLKTRACCEACANLKGAFLVAVIFLSLCLVITLIFAKEVPFKGNAALPTKSNEPAEPEGTGPLAVLKGFRNLPTGMPSVLIVTGLTWLSWFPFILYDTDWMGREIYHGDPKGTDPQIEAFNQGVRAGAFGLLLNSIVLGFSSFLIEPMCRKVGPRVVWVTSNFLVCIAMAATALISFWSLKDFHGTVQKAITADKSIKAVCLVLFAFLGVPLAVLYSVPFAVTAQLAATRGGGQGLCTGVLNISIVIPQVVIALGAGPWDELFGKGNIPAFGLASGFALIGGVAGIFLLPKISKRQFRSVSMGGGH
Question: Which K0.5 does the source give for B1 here?
Answer: The K0.5 was 7.50 mM.

B2: OsSUT5 (Oryza sativa Japonica Group) (protein)
chain: MEEGRRGDREGKSAAGWTALSTTKTTLEEKRRLQANGSVGGDAGTSGFRRIVRLFFACMVAGGIQYGWALQLSLLSPYSQTLGISHSYVSLTWICGPIAGFVVQPIVGYYSDRCTMKMGRRRPFILVGCLIICISVMIIGFSADIGRHLGDTKEHCSTYTGPRWSAAMVYIVGFWFLDFANNTVQGPARAMMADLSAGHHGPNVGQSIFSLWMAIGSVLGYLSGANGKWHEWFPWLKTAACCDACANLKGAFFTAVLLIVVSMTVTMYLADEMPLDKQDVDTSGGGGCAVFVDLFKSLRNLPPAMFKVLAVTAVTWLSWFPFIQYNTDWMGREIYHGEPQGTAAKADVYDAGVREGAMGLLFCSVALGVTSFVIPKLCRRLTSKVVWSISNFLVFALMAVMVAVGMVSMRGYRPSLAAGLTGPDPTLKAVALVVFALIGIPQAVLFSVPWAVASEVTAEEGGGQGLAIGVLNIAIVVPQLVIALTAGPIDGAFNKGNTPAFGIGGAFAFICGVLALIWLPKTRGVSNAAVVAGGH
Question: B2 was tested. Which K0.5 did it give?
Answer: The K0.5 was 2.32 mM.
